From the Human Domainome abundance scans (Beltran et al. 2025)
± gives the uncertainty stated by the source.

B1: RNA-binding E3 ubiquitin-protein ligase MEX3C, residues 325 to 391; numbered along this chain, Q5U5Q3 (parent)
chain: GQTTVQVRVPYRVVGLVVGPKGATIKRIQQQTHTYIVTPSRDKEPVFEVTGMPENVDRAREEIEMHI

Variants of: B1
Assay: abundance fitness (aPCA) (normalised: wild type 0, dead -1); higher = more abundant; growth selection in yeast, the domain comes from the species named
Conditions: Homo sapiens

Variant | abundance fitness
GQTTVQVRVPYRVVGLVVGPKGATIKRIQQQTHTYIVTPSRDKEPVFEVTKMPENVDRAREEIEMHI [G51K] | -0.448 ± 0.2
GQTTVQVRVPYRVVGLVVGPKGATIKRIQQQTHTYIVTPSRDKEPVFEVTQMPENVDRAREEIEMHI [G51Q] | -0.776 ± 0.36
GQTTVQVRVPYRVVGLVVGPKGATIKRIQQQTHTYIVTPSRDKEPVFEVTYMPENVDRAREEIEMHI [G51Y] | -0.918 ± 0.25
GQTTVQVRVPYRVVGLVVGPKGATIKRIQQQTHTYIVTPSRDKEPVFEVTCMPENVDRAREEIEMHI [G51C] | -1.05 ± 0.25
GQTTVQVRVPYRVVGLVVGPKGATIKRIQQQTHTYIVTPSRDKEPVFEVTSMPENVDRAREEIEMHI [G51S] | -0.918 ± 0.23
GQTTVQVRVPYRVVGLVVGPKGATIKRIQQQTHTYIVTPSRDKEPVFEVTWMPENVDRAREEIEMHI [G51W] | -0.951 ± 0.26
GQTTVQVRVPYRVVGLVVGPKGATIKRIQQQTHTYIVTPSRDKEPVFEVTRMPENVDRAREEIEMHI [G51R] | -0.726 ± 0.1
GQTTVQVRVPYRVVGLVVGPKGATIKRIQQQTHTYIVTPSRDKEPVFEVTDMPENVDRAREEIEMHI [G51D] | -0.656 ± 0.11
GQTTVQVRVPYRVVGLVVGPKGATIKRIQQQTHTYIVTPSRDKEPVFEVTFMPENVDRAREEIEMHI [G51F] | -0.701 ± 0.38
GQTTVQVRVPYRVVGLVVGPKGATIKRIQQQTHTYIVTPSRDKEPVFEVTGMNENVDRAREEIEMHI [P53N] | -0.295 ± 0.21
GQTTVQVRVPYRVVGLVVGPKGATIKRIQQQTHTYIVTPSRDKEPVFEVTGMWENVDRAREEIEMHI [P53W] | -0.871 ± 0.17
GQTTVQVRVPYRVVGLVVGPKGATIKRIQQQTHTYIVTPSRDKEPVFEVTGMFENVDRAREEIEMHI [P53F] | -0.488 ± 0.16
GQTTVQVRVPYRVVGLVVGPKGATIKRIQQQTHTYIVTPSRDKEPVFEVTGMMENVDRAREEIEMHI [P53M] | -0.433 ± 0.11
GQTTVQVRVPYRVVGLVVGPKGATIKRIQQQTHTYIVTPSRDKEPVFEVTGMIENVDRAREEIEMHI [P53I] | -0.689 ± 0.25
GQTTVQVRVPYRVVGLVVGPKGATIKRIQQQTHTYIVTPSRDKEPVFEVTGMAENVDRAREEIEMHI [P53A] | -0.141 ± 0.057
GQTTVQVRVPYRVVGLVVGPKGATIKRIQQQTHTYIVTPSRDKEPVFEVTGMCENVDRAREEIEMHI [P53C] | -0.514 ± 0.13
GQTTVQVRVPYRVVGLVVGPKGATIKRIQQQTHTYIVTPSRDKEPVFEVTGMTENVDRAREEIEMHI [P53T] | -0.375 ± 0.087
GQTTVQVRVPYRVVGLVVGPKGATIKRIQQQTHTYIVTPSRDKEPVFEVTGMGENVDRAREEIEMHI [P53G] | -0.541 ± 0.082
GQTTVQVRVPYRVVGLVVGPKGATIKRIQQQTHTYIVTPSRDKEPVFEVTGMSENVDRAREEIEMHI [P53S] | -0.279 ± 0.077
GQTTVQVRVPYRVVGLVVGPKGATIKRIQQQTHTYIVTPSRDKEPVFEVTGMRENVDRAREEIEMHI [P53R] | -0.167 ± 0.05

Variant | abundance fitness
GQTTVQVRVPYRVVGLVVGPKGATIKRIQQQTHTYIVTPSRDKEPVFEVTGMKENVDRAREEIEMHI [P53K] | -0.012 ± 0.1
GQTTVQVRVPYRVVGLVVGPKGATIKRIQQQTHTYIVTPSRDKEPVFEVTGMVENVDRAREEIEMHI [P53V] | -0.734 ± 0.13
GQTTVQVRVPYRVVGLVVGPKGATIKRIQQQTHTYIVTPSRDKEPVFEVTGMDENVDRAREEIEMHI [P53D] | -0.597 ± 0.27
GQTTVQVRVPYRVVGLVVGPKGATIKRIQQQTHTYIVTPSRDKEPVFEVTGMQENVDRAREEIEMHI [P53Q] | -0.173 ± 0.079
GQTTVQVRVPYRVVGLVVGPKGATIKRIQQQTHTYIVTPSRDKEPVFEVWGMPENVDRAREEIEMHI [T50W] | -0.545 ± 0.11
GQTTVQVRVPYRVVGLVVGPKGATIKRIQQQTHTYIVTPSRDKEPVFEVVGMPENVDRAREEIEMHI [T50V] | -0.745 ± 0.12
GQTTVQVRVPYRVVGLVVGPKGATIKRIQQQTHTYIVTPSRDKEPVFEVMGMPENVDRAREEIEMHI [T50M] | -0.378 ± 0.11
GQTTVQVRVPYRVVGLVVGPKGATIKRIQQQTHTYIVTPSRDKEPVFEVSGMPENVDRAREEIEMHI [T50S] | -0.254 ± 0.063
GQTTVQVRVPYRVVGLVVGPKGATIKRIQQQTHTYIVTPSRDKEPVFEVIGMPENVDRAREEIEMHI [T50I] | -0.494 ± 0.16
GQTTVQVRVPYRVVGLVVGPKGATIKRIQQQTHTYIVTPSRDKEPVFEVGGMPENVDRAREEIEMHI [T50G] | -0.651 ± 0.08
GQTTVQVRVPYRVVGLVVGPKGATIKRIQQQTHTYIVTPSRDKEPVFEVPGMPENVDRAREEIEMHI [T50P] | -0.916 ± 0.33
GQTTVQVRVPYRVVGLVVGPKGATIKRIQQQTHTYIVTPSRDKEPVFEVQGMPENVDRAREEIEMHI [T50Q] | -0.624 ± 0.099
GQTTVQVRVPYRVVGLVVGPKGATIKRIQQQTHTYIVTPSRDKEPVFEVHGMPENVDRAREEIEMHI [T50H] | -0.315 ± 0.19
GQTTVQVRVPYRVVGLVVGPKGATIKRIQQQTHTYIVTPSRDKEPVFEVNGMPENVDRAREEIEMHI [T50N] | -0.792 ± 0.35
GQTTVQVRVPYRVVGLVVGPKGATIKRIQQQTHTYIVTPSRDKEPVFEVYGMPENVDRAREEIEMHI [T50Y] | -0.598 ± 0.21
GQTTVQVRVPYRVVGLVVGPKGATIKRIQQQTHTYIVTPSRDKEPVFEVKGMPENVDRAREEIEMHI [T50K] | -0.52 ± 0.15
GQTTVQVRVPYRVVGLVVGPKGATIKRIQQQTHTYIVTPSRDKEPVFEVCGMPENVDRAREEIEMHI [T50C] | -0.313 ± 0.12
GQTTVQVRVPYRVVGLVVGPKGATIKRIQQQTHTYIVTPSRDKEPVFEVLGMPENVDRAREEIEMHI [T50L] | -0.547 ± 0.13
GQTTVQVRVPYRVVGLVVGPKGATIKRIQQQTHTYIVTPSRDKEPVFEVFGMPENVDRAREEIEMHI [T50F] | -0.618 ± 0.16
GQTTVQVRVPYRVVGLVVGPKGATIKRIQQQTHTYIVTPSRDKEPVFEVEGMPENVDRAREEIEMHI [T50E] | -0.835 ± 0.21
